The values that follow come from the supplement of paper PMC9112550, “Optimization of the antimicrobial peptide Bac7 by deep mutational scanning” (BMC Biology, 2022).

The test system of the data set is Escherichia coli TOP10. Briefly: shrunken log2 fold change of peptide-encoding DNA abundance (4.5 h post-induction vs induction); higher = less antimicrobial activity (less host growth inhibition). The settings on record: time post-induction: 4.5 h; library: site-saturation at positions 5, 18, 19, 20.
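Further: peptides expressed intracellularly from a pBAD plasmid library in pooled LB shake-flask culture, induced with 0.3% L-arabinose, DNA abundance read by NGS, three biological replicates, DESeq2 with apeglm shrinkage.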

Turning to RRIRRRPPRLPRPRPRPAWRPRP, the “shrunken log2 fold change” value turned out to be 0.504.
As for RRIRIRPPRLPRPRPRPHSWPRP, the figure is -0.327; as for RRIRHRPPRLPRPRPRPNCCPRP, 0.0161; as for RRIRGRPPRLPRPRPRPHFTPRP, 0.233.
Under RRIRWRPPRLPRPRPRPDMQPRP stands 0.337.
Under RRIRIRPPRLPRPRPRPFYKPRP stands -0.0824; under RRIRDRPPRLPRPRPRPWSRPRP, -0.612; under RRIRNRPPRLPRPRPRPNIKPRP, -0.641.
Turning to RRIRRRPPRLPRPRPRPMVVPRP, the “shrunken log2 fold change” value came out at 0.00307.
As for RRIRCRPPRLPRPRPRPYTAPRP, the figure is -0.595; as for RRIRKRPPRLPRPRPRPGHWPRP, 0.2.
Under RRIRDRPPRLPRPRPRPVMNPRP stands -0.343; under RRIRGRPPRLPRPRPRPWWGPRP, -0.0457; under RRIRFRPPRLPRPRPRPHKIPRP, -0.495.
Under RRIRLRPPRLPRPRPRPVCHPRP stands -0.274.
Consider RRIRFRPPRLPRPRPRPRVPPRP, for which the “shrunken log2 fold change” value is 0.291.
Under RRIRYRPPRLPRPRPRPKEEPRP stands -0.0656.
Under RRIRCRPPRLPRPRPRPIITPRP stands -0.892.
Under RRIRCRPPRLPRPRPRPHRVPRP stands 0.135; under RRIRKRPPRLPRPRPRPFETPRP, 0.163.
Regarding RRIRNRPPRLPRPRPRPFMTPRP, the “shrunken log2 fold change” value is -0.429.
As for RRIRPRPPRLPRPRPRPSIDPRP, the figure is -0.598.
Under RRIRYRPPRLPRPRPRPSLHPRP stands -0.622.
As for RRIRLRPPRLPRPRPRPIHIPRP, the figure is -0.374; as for RRIRHRPPRLPRPRPRPSIEPRP, -0.37; as for RRIRQRPPRLPRPRPRPHNIPRP, -0.076.
Turning to RRIRFRPPRLPRPRPRPMRVPRP, the “shrunken log2 fold change” value amounted to 0.973.
As for RRIRIRPPRLPRPRPRPWTDPRP, the figure is -0.111; as for RRIRTRPPRLPRPRPRPANFPRP, -0.234; as for RRIRHRPPRLPRPRPRPMCEPRP, -0.293.
As for RRIRERPPRLPRPRPRPATMPRP, the figure is -0.324; as for RRIRDRPPRLPRPRPRPKETPRP, -0.0231.
Under RRIRDRPPRLPRPRPRPERLPRP stands 0.659; under RRIRHRPPRLPRPRPRPWEEPRP, -0.0121.
RRIRERPPRLPRPRPRPQYAPRP: the “shrunken log2 fold change” value is -0.158.
As for RRIRERPPRLPRPRPRPCVAPRP, the “shrunken log2 fold change” value was 0.258.
Consider RRIRQRPPRLPRPRPRPSCAPRP, for which the “shrunken log2 fold change” value is -0.0664.
For the sequence RRIRPRPPRLPRPRPRPKPMPRP, the “shrunken log2 fold change” value amounted to 0.218.
As for RRIRRRPPRLPRPRPRPAHMPRP, the figure is 0.405; as for RRIRHRPPRLPRPRPRPSITPRP, -0.569; as for RRIRARPPRLPRPRPRPRNFPRP, -0.0153.
Under RRIRCRPPRLPRPRPRPFMAPRP stands -0.15; under RRIRTRPPRLPRPRPRPFATPRP, 0.101; under RRIRFRPPRLPRPRPRPTWWPRP, 0.494.
In the case of RRIRDRPPRLPRPRPRPDPSPRP, the “shrunken log2 fold change” value is -0.0385.
Under RRIRERPPRLPRPRPRPPEWPRP stands -0.0429.
As for RRIRNRPPRLPRPRPRPRDYPRP, the “shrunken log2 fold change” value was -0.0159.
For the sequence RRIRQRPPRLPRPRPRPTMDPRP, the “shrunken log2 fold change” value worked out at 0.0884.
As for RRIRDRPPRLPRPRPRPRWPPRP, the figure is 0.594; as for RRIRPRPPRLPRPRPRPFYSPRP, -0.161.
For RRIRRRPPRLPRPRPRPALFPRP, the “shrunken log2 fold change” value stood at 0.128.
As to RRIRGRPPRLPRPRPRPPHHPRP, the “shrunken log2 fold change” value was 0.537.
In the case of RRIRRRPPRLPRPRPRPPHYPRP, the “shrunken log2 fold change” value turned out to be 1.15.
As for RRIRRRPPRLPRPRPRPTCEPRP, the figure is 0.295; as for RRIRNRPPRLPRPRPRPVDKPRP, 0.0215.
As for RRIRVRPPRLPRPRPRPYYWPRP, the figure is -0.0974; as for RRIRPRPPRLPRPRPRPSVNPRP, -0.44; as for RRIRHRPPRLPRPRPRPHTIPRP, -0.0571.
In the case of RRIRDRPPRLPRPRPRPGWIPRP, the “shrunken log2 fold change” value came to 0.19.
For RRIRWRPPRLPRPRPRPVGTPRP, the “shrunken log2 fold change” value worked out at 0.235.
On to RRIRHRPPRLPRPRPRPALKPRP, for which the “shrunken log2 fold change” value is -0.322.
Turning to RRIRHRPPRLPRPRPRPFWPPRP, the “shrunken log2 fold change” value is 0.131.
As for RRIRMRPPRLPRPRPRPETQPRP, the figure is 0.359; as for RRIRKRPPRLPRPRPRPKVMPRP, 0.0802; as for RRIRRRPPRLPRPRPRPEFNPRP, 0.25.
Under RRIRARPPRLPRPRPRPLGIPRP stands -0.12; under RRIRSRPPRLPRPRPRPSWWPRP, 0.0841.
As for RRIRLRPPRLPRPRPRPLWIPRP, the figure is -0.399.
As to RRIRHRPPRLPRPRPRPWMFPRP, the “shrunken log2 fold change” value was -0.119.
Under RRIRLRPPRLPRPRPRPDYWPRP stands -0.596.
Under RRIRIRPPRLPRPRPRPAYLPRP stands -0.376; under RRIRKRPPRLPRPRPRPSISPRP, 0.146.
Regarding RRIRGRPPRLPRPRPRPNMAPRP, the “shrunken log2 fold change” value turned out to be 0.875.
Under RRIRIRPPRLPRPRPRPSHIPRP stands -0.879; under RRIRGRPPRLPRPRPRPWWCPRP, 0.127; under RRIRWRPPRLPRPRPRPGSNPRP, 0.227.
Under RRIRFRPPRLPRPRPRPHANPRP stands -0.16; under RRIRVRPPRLPRPRPRPGKQPRP, 0.0812.
With RRIRFRPPRLPRPRPRPAMKPRP, the “shrunken log2 fold change” value was -0.345.
As for RRIRTRPPRLPRPRPRPSMYPRP, the figure is -0.39; as for RRIRSRPPRLPRPRPRPSWPPRP, -0.135.
Turning to RRIRARPPRLPRPRPRPPVAPRP, the “shrunken log2 fold change” value was 0.77.
As for RRIRHRPPRLPRPRPRPSIDPRP, the figure is -0.617; as for RRIRDRPPRLPRPRPRPRLNPRP, -0.0317.
Under RRIRHRPPRLPRPRPRPTPLPRP stands 0.243; under RRIRSRPPRLPRPRPRPMPHPRP, 0.00101.
Under RRIRLRPPRLPRPRPRPPNNPRP stands -0.106; under RRIRWRPPRLPRPRPRPSYFPRP, 1.15; under RRIRWRPPRLPRPRPRPRVEPRP, 0.0508.
Turning to RRIRRRPPRLPRPRPRPAQVPRP, the “shrunken log2 fold change” value was -0.0303.
Regarding RRIRRRPPRLPRPRPRPQFGPRP, the “shrunken log2 fold change” value was -0.00169.
As for RRIRARPPRLPRPRPRPPNHPRP, the figure is 0.305; as for RRIRVRPPRLPRPRPRPPAMPRP, 0.246; as for RRIRLRPPRLPRPRPRPWGFPRP, -0.0515.
As for RRIRSRPPRLPRPRPRPQTPPRP, the “shrunken log2 fold change” value amounted to 0.6.
As for RRIRPRPPRLPRPRPRPMPMPRP, the figure is -0.301; as for RRIRGRPPRLPRPRPRPAVNPRP, 0.402.
Take RRIRKRPPRLPRPRPRPKSYPRP: the “shrunken log2 fold change” value is -0.177.
As for RRIRARPPRLPRPRPRPTTKPRP, the figure is 0.541; as for RRIRRRPPRLPRPRPRPNRYPRP, -0.365.
Regarding RRIRRRPPRLPRPRPRPKSVPRP, the “shrunken log2 fold change” value is 0.0439.
As for RRIRTRPPRLPRPRPRPNLHPRP, the figure is -0.725; as for RRIRQRPPRLPRPRPRPKWMPRP, -0.131; as for RRIRIRPPRLPRPRPRPIHTPRP, -0.907.
Under RRIRARPPRLPRPRPRPLHNPRP stands 0.00865; under RRIRYRPPRLPRPRPRPEHRPRP, 0.0623; under RRIRSRPPRLPRPRPRPPTCPRP, 0.155.
As for RRIRVRPPRLPRPRPRPLEVPRP, the “shrunken log2 fold change” value worked out at 0.0693.
Under RRIRRRPPRLPRPRPRPNKFPRP stands -0.246; under RRIRGRPPRLPRPRPRPRGPPRP, 1.66.
Take RRIRARPPRLPRPRPRPWDSPRP: the “shrunken log2 fold change” value was -0.277.
As for RRIRLRPPRLPRPRPRPCDWPRP, the figure is 0.201; as for RRIRYRPPRLPRPRPRPDLRPRP, -1.03.
Regarding RRIRHRPPRLPRPRPRPIVDPRP, the “shrunken log2 fold change” value worked out at 0.0237.
As for RRIRYRPPRLPRPRPRPRKDPRP, the “shrunken log2 fold change” value is -0.288.
Under RRIRYRPPRLPRPRPRPVFAPRP stands 0.0473.
For RRIRMRPPRLPRPRPRPFCFPRP, the “shrunken log2 fold change” value was 0.222.
As for RRIRDRPPRLPRPRPRPSRGPRP, the figure is 0.386; as for RRIRLRPPRLPRPRPRPMLPPRP, -0.164.
On to RRIRHRPPRLPRPRPRPEPAPRP, for which the “shrunken log2 fold change” value is 1.48.
As for RRIRERPPRLPRPRPRPVCMPRP, the figure is -0.164; as for RRIRCRPPRLPRPRPRPHVSPRP, -0.37; as for RRIRERPPRLPRPRPRPPVIPRP, -0.257.
As for RRIRVRPPRLPRPRPRPEKQPRP, the figure is 0.101; as for RRIRRRPPRLPRPRPRPGFIPRP, -0.00928.
